From patent publication US20170204184A1 (CB THERAPEUTICS, published 2017)
Positions count from the first letter of the chain named. In names and notes the source's numbering stands.

B1: m5G11 (antibody, V domains shown)
VH: QVQLKQSGPGLVQPSQSLSITCTVSGFSLTTYGVHWVRQSPGKGLEWLGVIWRGVTTDYNAAFMSRLTITKDNSKSQVFFKMNSLQANDTAIYYCARLGFYAMDYWGQGTSVTVSS
VL: SIVMTQTPKFLLVSAGDRVTITCKASQSVSNDVAWYQQKPGQSPKLLIYYAANRYTGVPDRFTGSGYGTDFTFTISIVQAEDLAVYFCQQDYTSPYTFGGGTKLEIK
notes: Murine hybridoma IgG (printed 'mIgG'); also called 5G11-mIgG; 5G11 murine
B2: m8C6 (antibody, V domains shown)
VH: B1 VH with T31S, R53S, V55G, T56V, M64I, T68S, T70S
VL: B1 VL with A34G, A52S, T56S, I77T
notes: Murine hybridoma IgG (printed 'mIgG'); also called 8C6-mIgG; 8C6 murine
B3: m4A8 (antibody, V domains shown)
VH: B1 VH with T31S, R53S, V55G, T56I, M64K, T68S, T70S, Y94F
VL: QIVLTQSPAIMSASPGEKVTMTCSANSSVSYMHWYQQKSGTSPKRWIYDTSKLASGVPARFSGSGSGTSYSLTISSMGAEDAATYYCQQWSSNPWTFGGGTKLEIK
notes: Murine hybridoma IgG (printed 'mIgG'); also called 4A8-mIgG; 4A8 murine
B4: m8H4 (antibody, V domains shown)
VH: EVKLVESGGGLVKPGGSLKLSCAASGFTFRSYGMSWARQIPEKRLEWVASISSGGTTYYLGSVQGRFTISRDNARNILYLQMSSLRSEDTAMYYCARGYDAGFAYWGQGTLVSVSE
VL: DIVLTQSPASLAVSLGQRATISCRASQSVSTSSYSYMHWYQQKPGQPPKLLIKYASNLESGVPARFSGSGSGTDFTLNIHPVEEEDTATYYCQNSWEIPYTFGGGTKLEIK
notes: Murine hybridoma IgG (printed 'mIgG'); also called 8H4-mIgG; 8H4 murine
B5: m5G9 (antibody, V domains shown)
VH: B4 VH with A37V, I40T, L60P, G61D, Q64K, T68I, R97K, A101S, S113I, E116A
VL: B4 VL with A9P, Y34S, N94H
notes: Murine hybridoma IgG (printed 'mIgG'); also called 5G9-mIgG; 5G9 murine
B6: m7B4 (antibody, V domains shown)
VH: EVKLFESGGGLVQPGGSLKLSCVASGFDFSTYWMHWVRQAPGQGLEWIGQINPDSTTINYAPSLKDRFIISRDNAKNTLFLQMSKVRSEDTALYYCAKPGDYGYDFDCWGQGTTLTVSS
VL: DVLMTQTPLYLPVSLGDQASISCRSSQIIVHSNANTYLEWFLQKPGQSPKLLIYKVSNRFSGVPDRFSGSGSGTDFTLKISRVEAEDLGVYYCFQGSHVPYTFGGGTKLEIK
notes: Murine hybridoma IgG (printed 'mIgG'); also called 7B4-mIgG; 7B4 murine
B7: m13C5 (antibody, V domains shown)
VH: B4 VH with T28I, A37V, I40T, T56S, L60P, G61D, Q64K, Y94D, A101S, S113T
VL: DIVLTQSPASLAVSLGQRATISCRASQSVSTSSSSFMHWYQQKPGQPPKLLIKYASNLESGVPARFSGSGSGTDFTLNIHPVEEEDTATYYCQHSWEIPYTFGGGTKLEIKR
notes: Murine hybridoma IgG (printed 'mIgG'); also called 13C5-mIgG; 13C5 murine
B8: m15F1 (antibody, V domains shown)
VH: EEKLVESGGGLVKPGGSLKLSCAASGFSFSSYGMSWVRQTPEKRLEWVASISSGGSIYYPDSVKGRFTISRDNARNILYLQMSSLRSEDTAMYYCARGYDAGFAFWGQGTLVTASA
VL: B4 VL with M37V, N94H
notes: Murine hybridoma IgG (printed 'mIgG'); also called 15F1-mIgG; 15F1 murine
B9: ch8C6-hIgG4 (antibody, V domains shown)
VH: B1 VH with T31S, R53S, V55G, T56V, M64I, T68S, T70S
VL: SIVMTQTPKFLLVSAGDRVTITCKASQSVSNDVGWYQQKPGQSPKLLIYYASNRYSGVPDRFTGSGYGTDFTFTISTVQAEDLAVYFCQQDYTSPYTFGGGTKLEIKR
notes: Mouse-human chimeric IgG4 (F234A/L235A), human kappa; also called Chimeric 8C6-IgG4 (F234A/L235A); chimeric 8C6-hIgG4
B10: ch5G11 (antibody)
VH: B1 VH
light: SIVMTQTPKFLLVSAGDRVTITCKASQSVSNDVAWYQQKPGQSPKLLIYYAANRYTGVPDRFTGSGYGTDFTFTISIVQAEDLAVYFCQQDYTSPYTFGGGTKLEIKRTVAAPSVFIFPPSDEQLKSGTASVVCLLNNFYPREAKVQWKVDNALQSGNSQESVTEQDSKDSTYSLSSTLTLSKADYEKHKVYACEVTHQGLSSPVTKSFNRGEC
notes: Mouse VH linked to a human constant region
B11: ch8H4-hIgG4 (antibody, V domains shown)
VH: B4 VH with E116S
VL: B7 VL with S34Y, F36Y, H94N
notes: Mouse-human chimeric IgG4 (F234A/L235A), human kappa; also called Chimeric 8H4-IgG4 (F234A/L235A); chimeric 8H4-hIgG4
B12: ch13C5 (antibody)
VH: B8 VH with E2V, S28I, S30R, I57T, Y94D, A101S, F105Y, A114V, A116E
light: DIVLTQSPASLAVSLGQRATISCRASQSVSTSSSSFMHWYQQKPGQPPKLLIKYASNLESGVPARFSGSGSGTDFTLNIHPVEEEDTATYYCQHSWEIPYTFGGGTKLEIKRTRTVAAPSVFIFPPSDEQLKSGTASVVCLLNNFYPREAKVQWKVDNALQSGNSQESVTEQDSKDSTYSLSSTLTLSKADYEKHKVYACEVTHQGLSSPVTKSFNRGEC

Key:
[1] = biological target: T1, PD-L1 on 293T cells (UniProt Q9NZQ7 19-290); assay: flow cytometry competition: blocks biotin-labeled PD-1 binding to PD-L1-293T cells
T1 construct: whole, on cells; also called PD-L1-293T; 293T-PD-L1 cells
T1 sequence (Q9NZQ7 19-290 limits assumed): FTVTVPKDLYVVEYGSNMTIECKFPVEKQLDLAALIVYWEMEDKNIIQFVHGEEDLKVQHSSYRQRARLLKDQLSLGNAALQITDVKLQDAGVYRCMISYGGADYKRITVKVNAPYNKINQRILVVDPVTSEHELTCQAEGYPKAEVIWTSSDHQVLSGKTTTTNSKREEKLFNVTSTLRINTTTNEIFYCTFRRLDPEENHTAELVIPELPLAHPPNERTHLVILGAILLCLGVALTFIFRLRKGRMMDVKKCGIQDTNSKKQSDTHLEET
Method: Briefly, PD-L1-293T cells were suspended in FACS buffer (PBS with 3% fetal calf serum). Various concentrations of the hybridoma (FIG. 10), chimeric (FIG. 11), or humanized (FIG. 12) anti-PD-L1 antibodies were added to the cell suspension and incubated at 4° C. for 60 minutes in 96 well plates. […] The cells were washed 3 times with PBS and incubated with mouse anti-biotin PE (Biolegend, cat# 409004). The cell-associated fluorescence was then detected by flow cytometry analysis using FACS array.

[2] = biological target: T2, hPD-L1-hFc (human); assay: ELISA, coated PD-L1-hFc
T2 construct: it may hold a signal peptide ('open reading frame of the extracellular domain'); also called PD-L1-hFc protein; human PD-L1 extracellular domain fused with human Fc tag
T2 sequence (chain, as listed by the source limits assumed): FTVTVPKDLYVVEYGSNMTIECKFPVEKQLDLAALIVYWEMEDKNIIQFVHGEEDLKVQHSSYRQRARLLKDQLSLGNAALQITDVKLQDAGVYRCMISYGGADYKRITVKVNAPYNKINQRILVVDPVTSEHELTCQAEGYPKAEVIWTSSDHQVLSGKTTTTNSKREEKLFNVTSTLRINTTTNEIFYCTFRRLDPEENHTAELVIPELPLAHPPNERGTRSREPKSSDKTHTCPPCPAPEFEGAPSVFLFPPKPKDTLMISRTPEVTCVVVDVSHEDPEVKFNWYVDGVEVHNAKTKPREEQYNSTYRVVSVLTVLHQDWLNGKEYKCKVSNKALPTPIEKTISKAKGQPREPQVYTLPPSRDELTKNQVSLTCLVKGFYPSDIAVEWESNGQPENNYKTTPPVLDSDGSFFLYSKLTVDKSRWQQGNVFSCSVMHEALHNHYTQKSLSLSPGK
Method: (§1) ELISA binding analyses were conducted based on human PD-L1-mFc (for chimeric and humanized antibody detection) and PD-L1-hFc protein (for hybridoma antibody detection). 96-well plates (Costar, Cat No: 9018) were coated with 100 μL of 2 μg/ml PD-L1-mFc (Crownbio) in coating buffer PBS (Hyclone, Cat No: SH30256.01B) overnight at 4° C. The wells were aspirated and non-specific binding sites were blocked by adding 200 μL of blocking buffer (PBS with 1% (w/v) of bovine serum albumin (BSA, Roche, Cat No:738328)) and incubating for 1 hour at 37° C. After the plates were washed three times with wash buffer (PBS with 0.05% (v/v) Tween20 (Sigma, Cat No:P1379)), 100 μL/well of 1:10 serial dilutions of hybridoma (FIG. 1), chimeric (FIG. 2), or humanized (FIG. 3) anti-PD-L1 antibodies in blocking buffer (starting from 20 μg/mL) were added and incubated at room temperature for 1 hour. The plates were washed and incubated with 100 μL/well of Goat anti-Mouse IgG (H+L) (Thermo, Cat No: 31432) in blocking buffer for 60 min. After the plates were washed, 100 μL/well of substrate solution TMB (eBioscience, Cat No: 00-4201-56) were added and the plates were incubated for 2 min at room temperature. 100 μL/well of stop solution (2N H₂SO₄) was added to stop the reaction. The colorimetric signals were developed and read at 450 nm using an Auto Plate SpectraMax Plus (Supplier: Moleculer Devices; Model: MNR0643; Software: SoftMax Pro v5.4). Data were analyzed using GraphPad Prism 5 and EC50 was calculated (FIGS. 1-3; Tables 5-7).

[3] = biological target: T1, PD-L1 on 293T cells; assay: flow cytometry on PD-L1-293T cells
Method: Cell binding analyses of anti-PD-L1 antibodies were performed based on binding to a 293T cell line stably expressing PD-L1 (PD-L1-293T). 2×10⁵ 293T-PD-L1 cells were added into each well of 96-well culture plates and incubated with the indicated antibody (20 μg/ml with the dilution of 1:5) at 4° C. for 1 h. After the cells were washed three times with FACS buffer, the secondary antibody (PE Goat anti-mouse: 1:200; PE mouse anti-human: 1:10) was added to the cells at 100 μl/well, and incubated at 4° C. for 40 min. Cells were washed three times with FACS buffer and analyzed by FACS Array.

[4] = biological target: T3, biotinylated human PD-L1-mFc (human, biotinylated (sites not given)); assay: competition ELISA: blocks PD-L1-mFc-biotin binding to coated PD-1-hFc
T3 construct: also called PDL-1-mFc-biotin
T3 sequence (chain, as listed by the source limits assumed): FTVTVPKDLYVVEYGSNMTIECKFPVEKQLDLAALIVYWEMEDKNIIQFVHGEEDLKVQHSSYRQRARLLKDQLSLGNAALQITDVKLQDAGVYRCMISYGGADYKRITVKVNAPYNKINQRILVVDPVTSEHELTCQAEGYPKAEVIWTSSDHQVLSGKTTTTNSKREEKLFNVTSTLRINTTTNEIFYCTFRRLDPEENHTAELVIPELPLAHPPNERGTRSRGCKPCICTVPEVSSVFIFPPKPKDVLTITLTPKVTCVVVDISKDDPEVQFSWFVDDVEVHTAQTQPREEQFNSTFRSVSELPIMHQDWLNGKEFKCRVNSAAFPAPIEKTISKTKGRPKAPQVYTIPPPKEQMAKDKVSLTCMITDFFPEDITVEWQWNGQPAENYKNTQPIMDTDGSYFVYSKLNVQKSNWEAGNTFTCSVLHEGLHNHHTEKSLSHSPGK
Method: The wells were aspirated and non-specific binding sites were blocked by adding 200 μL of blocking buffer (PBS with 1% (w/v) of bovine serum albumin (BSA, Roche, Cat No:738328)) and incubating for 1 hour at 37° C. After the plate was washed three times with wash buffer (PBS with 0.05% (v/v) Tween20 (Sigma, Cat No:P1379)), 100 μL/well of 1:3 serial dilutions of hybridoma (FIG. 4), chimeric (FIG. 5), or humanized (FIG. 6) anti-PD-L1 antibodies in blocking buffer (starting from 20 μg/mL) were added and incubated at 37° C. for 1 hour. […] After the plate was washed 3 times, secondary antibody (Avidin HRP eBioscience cat No.: E07418-1632, 1:500, 100 μl/well) was added and incubated at 37° C. for 0.5 hour. After the plate was washed, 100 μL/well of substrate solution TMB (eBioscience, Cat No: 00-4201-56) was added and the plate was incubated for 3min at room temperature. 100 μL/well of stop solution (2N H₂SO₄) was added to stop the reaction. The colorimetric signals were developed and read at 450 nm using an Auto Plate SpectraMax Plus (Supplier: Moleculer Devices; Model: MNR0643; Software: SoftMax Pro v5.4). Data were analyzed using GraphPad Prism 5 and IC50 was calculated (FIGS. 4-6; Tables 8-10).

[5] = biological target: T4, Human PD-L1 (human, UniProt Q9NZQ7 19-238, limits assumed); assay: SPR (Biacore 3000), antibody captured, PD-L1 as analyte, 1:1 fit
T4 construct: also called PD-L1 analyte (Biacore); hPD-L1
T4 sequence (Q9NZQ7 19-238 limits assumed): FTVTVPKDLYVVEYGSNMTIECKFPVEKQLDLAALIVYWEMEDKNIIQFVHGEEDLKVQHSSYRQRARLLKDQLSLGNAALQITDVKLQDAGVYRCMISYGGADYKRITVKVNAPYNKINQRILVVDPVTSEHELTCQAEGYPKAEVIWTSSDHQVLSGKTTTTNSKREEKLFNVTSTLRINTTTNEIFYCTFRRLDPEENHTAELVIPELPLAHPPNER
Method: The binding kinetics between PD-L1 and PD-L1 antibodies were measured by Biacore analysis, which was performed at 25° C. on a Biacore3000 instrument and recorded with a data collection rate of 1 Hz. Polyclonal rabbit anti-mouse IgG (GE, BR-1008-38) was diluted with 10 mM pH 5.0 sodium acetate and immobilized onto reference and experiment flow cells of a CM5 biosensor chip to around 15000 RU using an amine coupling kit (GE, BR10050). […] PD-L1 analyte series were prepared by diluting the stocks with running buffer to 100 nM followed by 2× serial dilution in the same buffer down to 0.78 nM. Analytes were injected in series over the reference and experiment flow cells for 3 minutes at a flow rate of 30 μL/minute. Running buffer (PBS with 0.05% P20) was allowed to flow over for 10 minutes at a flow rate of 30 μL/minute. At the end of each cycle, the biosensor surface was regenerated with 3 minutes injection of 10 mM pH1.7 Glycine-HCl buffer at a flow rate of 10 μL/minute. For each analyte sample injection (i.e. each cycle), binding responses obtained from the experimental biosensor surface were double referenced by subtracting simultaneously recorded responses from the reference surface followed by additional subtraction of responses from a single referenced running buffer sample. The association and dissociation rate constants (ka and kd) were determined simultaneously by fitting double-referenced sensorgrams of the entire titration series to Langmuir model (1:1) using Biaevaluation 4.0 software. The dissociation constant, KD, was calculated from the determined rate constants by the relation KD=kd/ka.

[6] = biological target: T5, hPD-L1-mFc (human); assay: ELISA, coated PD-L1-mFc
T5 construct: it may hold a signal peptide; also called human PD-L1-mFc; PD-L1-mFc (Crownbio)
Method: as §1

| Binder | IC50 [1] [µg/mL] | EC50 [2] [µg/mL] | EC50 [3] [µg/mL] | IC50 [4] [µg/mL] | Kd [5] [nM] | EC50 [6] [µg/mL] |
| --- | --- | --- | --- | --- | --- | --- |
| B1 | 0.0163 | 0.0459 | 0.0359 | 0.71 | 0.19 |  |
| B2 | 0.0082 | 0.0182 | 0.041 | 0.344 | 1.53 |  |
| B3 | 0.0291 | 0.0576 | 0.0678 | 0.868 | 2.33 |  |
| B4 | 0.0306 | 0.029 | 0.0435 | 0.788 | 4.56 |  |
| B5 | 0.0491 | 0.0312 | 0.0337 | 0.613 | 4.78 |  |
| B6 | 0.0381 | 0.0314 | 0.0474 | 0.892 | 6.01 |  |
| B7 | 0.0289 | 0.0651 | 0.0453 | 0.872 | 1.35 |  |
| B8 | 0.0211 | 0.0487 | 0.0478 | 0.655 | 3.59 |  |
| B9 | 0.0349 |  |  | 0.477 |  | 0.076 |
| B10 |  |  |  |  | 0.286 |  |
| B11 | 0.042 |  |  | 0.848 |  | 0.134 |
| B12 |  |  |  |  | 2.28 |  |
